Test system: adipose tissue
Format: in vivo, human
Text: Thus, by adjusting the single dose of hyaluronidase in the injection composition for topical fat removal of the present invention to 300 IU to 600 IU, the side effects from using the drug are minimized and yet fat removal over a wide area can be carried out using a minimal volume. It has been shown in clinical trials that at a hyaluronidase activity of 300 IU and an injection volume of 1 cc, the diameter of the diffusion range for the injection composition is about 1 cm. Thus, by injecting the composition at narrow intervals between injection points of 0.5 to 2 cm, even fat removal as well as collagen production by skin stimulation can be facilitated.

Substance: hyaluronidase
- amount at which adipose cells are excessively hydrolyzed, causing concerns about dimpling or subcutaneous bleeding (human, in vivo, sc): above 600 IU
- minimum amount of hyaluronidase exhibiting efficacy (single dose): 300 IU

— patent US20180207087A1, “KIT AND AESTHETIC SYSTEM FOR PREVENTION OF SKIN AGING” (priority 2017, published 2018)
